Assay results: patent US20060018906A1

Biological target: human tumor necrosis factor-α (TNFα) (human) (UniProt P01375)
Test: cell-based or functional assay

Chain of human tumor necrosis factor-α (TNFα) (human) (P01375 77-233): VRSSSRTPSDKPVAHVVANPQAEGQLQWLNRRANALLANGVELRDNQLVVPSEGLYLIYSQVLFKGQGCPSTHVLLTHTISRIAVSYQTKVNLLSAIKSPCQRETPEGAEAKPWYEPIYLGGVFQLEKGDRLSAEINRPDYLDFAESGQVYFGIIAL

B1: chimeric mouse/human IgG1 anti-platelet mAb (7E3) (antibody, INN chains, looked up, V domains shown)
VH: EVQLQQSGTVLARPGASVKMSCEASGYTFTNYWMHWVKQRPGQGLEWIGAIYPGNSDTSYIQKFKGKAKLTAVTSTTSVYMELSSLTNEDSAVYYCTLYDGYYVFAYWGQGTLVTVSA
VL: EIVLTQSPVTLSVTPGDSVSLSCRASRDISNNLHWFQQTSHESPRLLIKYASQSMSGIPSRFSGSGSGTDFTLSINSVETEDFGMYFCQQTNSWPYTFGGGTKLEIK
modifications: IgG1
- IL-6 concentration in FS-4 fibroblast supernatant; rhTNF 0.3 ng/ml, antibody 4 µg/ml: 1.6 ng/mL
- IL-6 concentration in FS-4 fibroblast supernatant; rhTNF 1.5 ng/ml, antibody 4 µg/ml: 1.96 ng/mL
- IL-6 concentration in FS-4 fibroblast supernatant; rhTNF 7.5 ng/ml, antibody 4 µg/ml: 2.16 ng/mL
